# Experiment: soluble on expression in E. coli; label from the status in PepcDB or PDB records
row,Sequence,soluble on expression in E. coli
1,MSKLDTIFEVVISRDKMEATLKQHEPFPEDHPVTKDELLSFMKEHGVVFGVKESVIDQVVKSEKGLTSSVKVAEGLQPQNGKHGYLQPIQHEEEERDVHSISAMNLRDVLSIPEVKQGQVIGKKIPATLGEDGMNVLGEPIKAKPGREFVLRPGKNSTVDEANGTLVAAVDGQMSVDKRTIHVYPVYEVPGDLTMKHGNISFIGNVIIRGHVPDGFVVKAGGDIRVFGTVEGATLEAGGSIFVGAGIVGQNRGCIRAEGGLHTTFINQAKVEVGGDIEVVQSILHSTCTAGGKIICTRGKGNIVGGALSAEDHIYAKEIGNSMHTKTSLYIGAKEKWVTKEKQLAKEYKTTEEELKKLSLLLQKFQELEKENGLTANGRVQRLRVKNTLVQVKEKHEQIKEQLEDVQENLTLNQAGSIVVEQTLYPNVSAHFGKYRRKIVSNHSNVKLSLVDQEIQLSSRLEHHHHHH,soluble
2,MSKQIVILGAGYGGLLAALNVRKYYSKSEAQVTVINQYPTHQIITELHRLAAGNVSEQAVAMPLTKLFKGKDIDLKIATVESFSVDSKEIKLAGGTTLSYDALVVALGSKTAYFGIPGLEENSMVLKSAADANKIYKHVEDRIREYAKTKNEADATIVIGGGGLTGVELVGELADIMPKLAKSHGVNPKEVKLLLVEAGPKILPVLPDHLIERATTSLEARGVTFLTGLPVTNVAGNEIDLKDGQKLVANTFVWTGGVQGNPLIGESGLEVNRGRATVDAYLQSTSHKDVFVAGDSAVVFAPDGRPYPPTAQIAWQMGELIGYNLYAALEGKAFEEFAPVNSGTLASLGRKDAVATIGASNTPLKGLPASLMKEASNVRYLSHIKGLFSLAY,not soluble
3,MSKSALHAFIDRARADEDFRSKLAHLDPNQIIEFAGQHGFLFSDEIKGRFINRWSGVYFCPQAIEVGQLCPALVPDGYKNLIHYAQSTCSSSNLSEEERDFRSGIKY,not soluble
4,MSKSEEKQELPLETSPYTKYEDIEDYKKNAYGTSGHQDVKPGHGGGTTDAPTPSGDAAPSAIDSANQKAKK,soluble
5,MSKTLDGEPIECEIIDSLKLVNNTMDKIISRGYEKSAIYTPKAYGSVYRLSETNLLSKNEFKDNLLITFMAKKFKKLIRSEKPDLIIGTHPFPMIALSTLKKNFNLHNNESNAYTEHFYKHYTNTINVPPLISVLTDYTTHSTWIQNEIDYYIVGHEYVKELLVFDGVEPSKIRTFGIPLEHHHHHH,not soluble
6,MSKVAMVTGGAQGIGRGISEKLAADGFDIAVADLPQQEEQAAETIKLIEAADQKAVFVGLDVTDKANFDSAIDEAAEKLGGFDVLVNNAGIAQIKPLLEVTEEDLKQIYSVNVFSVFFGIQAASRKFDELGVKGKIINAASIAAIQGFPILSAYSTTKFAVRGLTQAAAQELAPKGHTVNAYAPGIVGTGMWEQIDAELSKINGKPIGENFKEYSSSIALGRPSVPEDVAGLVSFLASENSNYVTGQVMLVDGGMLYN,soluble
7,MSKVKGDLEKSDKRPPSSMSTGSADSGVFSSGVHASSPSHSQGSSSQSGPPSPTTQLNSLLFETANLIAVNEQLRKEIAENKQIQTNQMRALRYSSNPVDQPFVANSISPHHGFPQRPPRGERRMQKPESYKTVICQAWLESKTCTFAENCRFAHGEEELRPAKLESRQNNKYKTKLCDKYTTTGLCPYGKRCLFIHPDNQPNAYIRADKLYEVSQRHALADLRDHVESQIMTGNTRNSYNQQPPPMGGLEMQSSPMKSSSDSSHMRSPMAQMNCETTRPHPSWPLESSSFFLPPEMSSINNNNLMSPFETPFPNGSTGIQPHFVTAKRRAAFPPVPSNFQQDDDNMSSIPGFDHLAEDMAKHLELW,not soluble
8,MSLAAPNAASGVLKLYRAYREQAQRLSDLSDLLAREGHETALSSTRLPIDEVRHVFENRPAYFHAIDAAAEELHKQLSTGDDLASGLRAWLQKNHGIVVRTLPVHAMPNLRRRYDRHSMRLFLSERLSQPDQLREMAMETCLLALREEIGTELEALGLKGEEARRIARFELARYAAHALMMPYGAFLAAAQRAKYDLDVLRSRFNVSFEQAANRLVSLQRPTTAAIPFFLMEIDNAGNRFRLAGAGGFPRARFGGLCPRLNIHAAFAQPGQVLVESVEMPDGDAFLTVSRTLEGEGHHHHHH,not soluble
9,MSLAAPTLTGGKLTVGIQGTHAELGVLLYPGVQMAAVHGLSDLFEVANRIAGEQPQAQLPRLRVSHWQASGELPPVRVHDSLAEAPGALLAVLIPPSLAGFSSHQSSAALMDWLRQQHAAGATLGGVCVGSILLAESGLLDGRSATTHWTSAQAFAERYPQVRLEADKPIVDDGDLITSAGLMAWAELGLRLVNRLLGPSIASATARFLVMEHSASASQCGSNFAPILSHGDGAILKLQHWLQANGAVDVSLPVMAQQAGLEPRTLLRRFRAATGLKPTQYCQHLRVGKARELLEFTNGSIDHIAWTVGYQDPATFRSLFRKITGLAPSEYRNRFGATSTAASREGHHHHHH,soluble
10,MSLADIFDFPRDARNVARADGKEADMGGEAPQTMLMRPQGVPDQVWNAVLSVDRMRRLKGMTYREIPVPNSMANFGIGVALECDETYASGWIMILYSLKFREDWHSHWRCVAFASLPLPDKEDDCLTPGMYWDMMMERLNPNDSEHVSGTVTVTQNTAFGHDPDVPRVGCEIRVSWTPLDYADGGLDAGSQVGQWASFLRSMTQSEEEGHHHHHH,soluble
11,MSLAGHQPILTVSEVTRHLKRTIEDDPLLQDVWMRGEISNFKHHSRGHMYFTLKDEHAKMSAVMFAGNNRFLNFKPENGMKVIVRGEVNVYEPFGQYQLYALEMQPDGIGNLYLAYEQLKERLEQEGLFKEENKKPLPPVARQIAIVTSPTGAAIRDIASTIKRRFPVAQLTLLPVLVQGEEAPHSIAKAIRQANEVGGFDLLIVGRGGGSIEELWAFNEELVARAIYQSVIPIISAVGHETDYTIADFVADVRAATPTGAAELAVPDLKELISRVNQYTERLKRAQHELLKRQKEHLQRLQKSYAFRYPAQLVKQKELELDQQLERLTKHQRRMVSDAKDRLSQLEYRLKRIHPEGRLRQAEQARVKLEVLLKKEFQQMMERKEQQFQQAISSLNLLSPLRVMERGYALPYKAKTQELIKSVKQVRMNDRLHLRVTDGQLICDVKEIESESGGEGYDQKEGHHHHHH,not soluble
12,MSLAHIRTRETYGTRRLQTELAENGIIVGRDRLARLRKELRLRCKQKRKFRATTNPNHNLPVAPNLLNQTFAPTAPNQVWVADLTYVATQEGWLYLAGIKDVYTCEIVGYAMGERMTKELTGKALFMALRSQRPPAGLIHHSDRGSQYCAYDYRVIQEQSGLKTSMSRKGNCYDNAPMESFWGTLKNESLSHYRFNNRDEAISVIREYIEIFYNRQRRHSRLGNISPAAFRENIIRWLLKKRTNGSVRYCQYTSKVAMIYIEQLELIHKSGDVLYPVKITRKSSGKTAFHLVPFGLNKTHDLLEVEDASEAIRLVIDERHSIRCSTLTATITNKKGKRIKRTGIYSIKGVNIKEYNVREGHHHHHH,not soluble
13,MSLAHRTVAMVLFNDVLLLDVTGPMDAFAIANRFLPAARQYRLLTLAEGQAVVRGSCGLKVVADRRLEDLPEAVDLLLVPGGPGAYDIALPGIERWLPKAVRQAKRFGAICTGVFLLGRAGLLNGYRCTTHWNYVERLAQAFPEAKVETEQIYVMDRCLITSGGITAGIDLALAVVAEDHGKALALEVAKVLLVARHRQGGQTPYGPLLAAVPRDDSPIARVQAYIVDHIEQAFTVQKMAELVAMSGRNFARTFLREVGITPLQYLQNARIDRTRKLLECGDLPMKVVAAQCGFGSDRHMRKVFFERIGMTPAQYRAQFGGEGHHHHHH,soluble
14,MSLALAIFDLDETLIHGDCASLWSEQMARLGWVDGKDFLRRDHELMEAYGRGHLQMEDYMAFSLEPIAGRTLEEVEHLVAPWVEEVIEPIIYGDACRCIAEHRKRGDRILIISASGTHLVGPIAARLGVDEYLAIELEAVNGVYTGKTHGVLTYREGKITRLLEWLDQEQENLEGASFYSDSRNDLPLLLRVDHPHVVNPDAVLREHAEINGWPTLSWSEGHHHHHH,soluble
15,MSLAMSKVKSITRESWILSTFPEWGSWLNEEIEQEQVAPGTFAMWWLGCTGIWLKSEGGTNVCVDFWCGTGKQSHGNPLMKQGHQMQRMAGVKKLQPNLRTTPFVLDPFAIRQIDAVLATHDHNDHIDVNVAAAVMQNCADDVPFIGPKTCVDLWIGWGVPKERCIVVKPGDVVKVKDIEIHALDAFDRTALITLPADQKAAGVLPDGMDDRAVNYLFKTPGGSLYHSGDSHYSNYYAKHGNEHQIDVALGSYGENPRGITDKMTSADMLRMGEALNAKVVIPFHHDIWSNFQADPQEIRVLWEMKKDRLKYGFKPFIWQVGGKFTWPLDKDNFEYHYPRGFDDCFTIEPDLPFKSFLEGGSHHHHHH,soluble
16,MSLANLKVNLYGMEFLNPIMTAAGPGAKDGALCQEAAKGGAGAICTKTISVLPADVPRPCMAKTNSGFLNTELWSELPKEQWIEEEYKKVKETGLPVIVSMGYSAEQIAEVAPLVKPYADAVELSTHYVGTDVAPIVNALKAAKAVLDVPVFMKMSPHTDIQTIAKAVEEAGADGLVMINSFGPCMAIDVNTGYPIMGSKAGYGWLSGAPIRPLAIRCIYEASQVVNIPIIGVGGITCGKDVAEMMMAGASAVQVCTEAILKGPSIYGKIAKELNEFLDENGEGHHHHHH,not soluble
17,MSLANMHQEPDGSWMVEGQTTVRELNRVLKWGLPANGPRTLNGLILEHLESIPEAGTSLLIQGWPVTILQTQDNRVKMARVQPHHKRRRQPRRHEGHHHHHH,soluble
18,MSLANRIRLHIWGDYACFTRPEMKVERVSYDVITPSAARGILSAIHWKPAINWVIDKIYVLKPIRFESVRRNELGAKISESKVSGAMKRKSVADLYTVIEDDRQQRAATVLKDVAYVIEAHAVMTSKAGVDENTTKHIEMFKRRALKGQCFQQPCMGVREFPAHFALIDDNDPLPLSQLSESEFNRDLGWMLHDIDFEHGNTPHFFRAELKNGVIDVPPFYAEEVKREGHHHHHH,soluble
19,MSLAPLAPLRAHAGRRLTAGLDDATIERLATDHPTLRQAIEAAGSEYALVQAEVADLLDLDEDAQISAVQDGFINFYADDAVTPYVALAARGPWVITLKGAVLYDAGGYGMLGFGHTPEAVLDAMARPQVMANVMTPSLAQRKLDRALRAEIGHTRGGCPFARFMCLNSGSEAVGLAARIVDTNAKLHTDPGARHAGATIKRLVVKGSFHGRTDRPGLYSDSSRKTYSKYLASYRDEDSVIAIAPYDIAALQRAFDEAARNHWFIEAVFLEPVMGEGDPGRALPAEFYAAARTLTRNHGSLLLVDSIQAGLRAHGVLSVVDYPGFEQLDPPDLETYSKALNAAQYPLSVLAVTEQAAQVYRKGTYGNTMTTNPRALDVACATLALFTPQIRDNIRLRGAQALRKLEALQAELGGLITKVQGTGLLFSCELAPQYKCYGAGSTEEWLRHHGVNVIHGGENSLRFTPHFGMDEAELDLLVGLIAKALKEGPRQAQAEAEGHHHHHH,soluble
20,MSLAPRQVNCILRTNEHTQEFFGGSVKSYDSNQLASNSPIEDSRSEASCVHTSGLLLGIFDGHGGPACSQVISKRLMRYIAASLVPPDDLRQHVLNGAQSFSFLSCHNDKARCGYEIKELYEKSFHQFANELTNTTLAGFQMHQTLENAFIRLDQDLSREAIEMPSLRTMSVAMSGAVALVAHIDGPHLHVASVGDCSAVLGTVTDTGQWMAKKLTNEHNSDNVGEVRRLLSEHPATERDTVIRGERLLGQLAPLRAMGDFRYKWSREQLEQLVVPQFGEQVIAPYYLTPPYLSACPEITHHILTPRDKFLIIASDGLWDTMSAMQTVHLVGEHMYGKAFLQPLTLPKQDITLGEISQMLTTRKAGLQKKPLDRNAATHLIRNALGGTEYGVEHSKLSHMLSLPQDIVRLFRDDITITVVYFDSEYLEGHHHHHH,not soluble

# — the DeepSol protein solubility set
